# Reference: the nanobody polyreactivity screen of Harvey et al. (2022)
# Test: yeast display, Sf9 membrane polyspecificity reagent, FACS + sequencing; frameworks hold sequencing errors
# Outline: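 A synthetic nanobody library was expressed on Saccharomyces cerevisiae BJ5465 by galactose induction for 36–48 hours. The library was stained for 1 hour at 4 °C with 10% biotinylated, detergent-solubilized Sf9 membrane reagent and enriched with streptavidin microbeads before FACS. Low and high (top ~1%) gates were set on anti-HA fluorescence for expression and streptavidin fluorescence for reagent binding, and each polyreactivity label reflects the gate of origin.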
row,Sequence,polyreactivity (PSR sort gate)
1,QVQLVESGGGLVQAGGSLRLSCAASGFTFHNYAMGWYRQAPGKERELVAVIRWRGGSTYYADSVKGRFTISRDNAKNTVYLQMNSLKPEDTAVYYCNALFRYSRDYWGQGTQVTVSS,high polyreactivity
2,QVQLVESGGGLVQAGGSLRLSCAASGFTFHPNSMGWYRQAPGKERELVASISSRGGSTYYADSVKGRFTISRDNAKNTVYLQMNSQKPEYTAVYYCNVRGTQYYGHIGFYYWGQGTQVTVSS,low polyreactivity
3,QVQLVESGGGLVQAGGSLRLSCAASGFTFHRYAMGWYRQAPGKERELVARINWSGGGTYYADSVKGRFTISRDNAKNTVYLQMNSLKPEDTAVYYCNARGVFYVYKHDYWGQGTQVTVSS,high polyreactivity
4,QVQLVESGGGLVQAGGSLRLSCAASGFTFHSYAMGWYRQAPGKERELVAAISGRGGSTYYADSVKGRFTISRDNAKNTVYLQMNSLKPEDTAVYYCARYGYHDYGYWGQCTQVTVSS,high polyreactivity
5,QVQLVESGGGLVQAGGSLRLSCAASGFTFHTYAMGWYRQAPGKERELVAAIDSSGGITYYADSVKGRFTISRDNAKNTVYLQMKSLKPEDTAVYYCAAVFLLFGFEWSYDYWGQGTQVTVSS,low polyreactivity
6,QVQLVESGGGLVQAGGSLRLSCAASGFTFHWYVMGWYRQAPGKERELVAAISRNGGRTYYADSVKGRFTISRDNAKNTVYLQMNSLKPEDTAVYYCATDYGWLYINSIWEYDYWGQGTQVTVSS,high polyreactivity
7,QVQLVESGGGLVQAGGSLRLSCAASGFTFHYYDMGWYRQAPGKERELVATISQSGTSTYYADSVKGRFTISRDNAKNSVYLQMHSLKPEDTAVYYCAADYIGYWYGYYWYEYWGQGTQVTVSS,low polyreactivity
8,QVQLVESGGGLVQAGGSLRLSCAASGFTFHYYGMGWYRQAPGKERELVAAINWSGSSTYYADSVKGRFTISRDNATNTVYLQMNSLKPEDSAVYYCAAEKRKLFQGVARYRYEYWGQGTQVTVSS,low polyreactivity
9,QVQLVESGGGLVQAGGSLRLSCAASGFTFIDYAMGWYRQAPGKERALVAAITSRGGSTYYADSVKGRFTISRDNAKNTVYLQMNSLKPEDTAVYYCNAGSSFWYAYEYWGQGTQVTVSS,high polyreactivity
10,QVQLVESGGGLVQAGGSLRLSCAASGFTFIRNAMGWYRQAPGKERELVAAISKRGGSTNYADSVKGRFTISRDNAKNTVYLQMNSLKPEDTAVYYCAAGGQVAWLDYYPMDYWGQGTQVTVSS,low polyreactivity
11,QVQLVESGGGLVQAGGSLRLSCAASGFTFIRSAMGWYRQAPGKGRELVAAITVSGTRTYYADSVKGRFTISRDNAKNTVYLQMNSLKPEDTAVYYCNARDVYTGYGMGYWGQGTQVTVSS,high polyreactivity
12,QVQLVESGGGLVQAGGSLRLSCAASGFTFIRYAMGWYRQAPGKERELVATITRRGGSTYYADSVTGRFTISRDNAKNTVYFQMNSLKPEDTAVYDCNRDYVTYGQYYYWGQGTQVTVSS,high polyreactivity
13,QVQLVESGGGLVQAGGSLRLSCAASGFTFIRYARGWYRPAPGKERELVAAIRGTGTSTYYADSVKGRFTISRDNAKNTVYLQMNSLKPEDTAVDYCNTVAGRSPYTRYDYWGQGTQVTVSS,low polyreactivity
14,QVQLVESGGGLVQAGGSLRLSCAASGFTFISYAMGWYRQAPGKERELVAVINQRGGRTYYADSVKGRFTISRDNAKNTVYLQMNSLKPEDTAVYYCATRLKSVSGGYNYWGQGTQVTVSS,high polyreactivity
15,QVQLVESGGGLVQAGGSLRLSCAASGFTFITNAMGWYRQAPGKERELVASISIGGSTNYADSVKGRFTISRDNAKNTVYLQMNSLKPEDTAVYYCAARVYRRLFLPGRYGRPLGYWGQGTQVTVSS,high polyreactivity
16,QVQLVESGGGLVQAGGSLRLSCAASGFTFIYNAMGWYRQAPGKERELVAAISRGASTNYADSVKGRFTISRDNAKNTVYLQMNSLKPEDTAVYYCAKRTTRLAPYDYWGQGTQVTVSS,high polyreactivity
17,QVQLVESGGGLVQAGGSLRLSCAASGFTFIYYAMGWYRQAPGKERELVAAISSRTGRTYYADSVKGRFTISRDNAKNTVYLQMNSLKPEDTAVYYCNADRNWRSGKFNYWGQGTQVTVSS,high polyreactivity
18,QVQLVESGGGLVQAGGSLRLSCAASGFTFIYYAMGWYRQARGKERELVAAISRGDSTYYADSVKGRFTISRDNAKNTVYLQMISLKPEDTAVYYCAAASHVRRDHGYWGEGTQVTVSS,low polyreactivity
19,QVQLVESGGGLVQAGGSLRLSCAASGFTFKFNAMGWYRQAPGKEREFVAAISYSGGSTYYADSVKGRFTISRDNAKNTVYLQMNSVKPEDTAVYYCAARAYWYGASYYYWGQGTQVTVSS,high polyreactivity
20,QVQLVESGGGLVQAGGSLRLSCAASGFTFKFYAMGWYRPAPGKERELVAAISSGGASTYYADSVKGRFTISRDNAKNTVYLQMNSLKPEDTAVYYFAARSGGPSDGSGYWGQGTEVTVSS,low polyreactivity
21,QVQLVESGGGLVQAGGSLRLSCAASGFTFKFYAMGWYRQAPGKERELVAAISWSGGSTYYADSVKGRFTISRDNAKNTVYLQMNSLKPEDTAVYYFAKRGGRQTYYYWGLGTQVTVSS,high polyreactivity

row,Sequence,polyreactivity (PSR sort gate)
1,QVQLVESGGGLVQAGGSLRLSCAASGFTFKGNAMGWYRQAPGKERELVATITQSAGSTYYADSVKGRFTISRDNAKNTVYLQMNSLKPEDTAVYYCNADPITLYYYSWYNYWGQGTQVTVSS,low polyreactivity
2,QVQLVESGGGLVQAGGSLRLSCAASGFTFKGNTMGWYRQAPGKERELVANITRGGTTYYADSVKGRFTISRDNAKNTVYLQMNSLKPEDTAVYYCAARNWPSRGYNYWGQGTQVTVSS,high polyreactivity
3,QVQLVESGGGLVQAGGSLRLSCAASGFTFKLYAMGWYRQAPGKERELVAVITTSGGRTYYADSVKGRFTISRDNANNTVYLQMTSLKPEDTAVYYCAKVVFVRVAPGYYWGQGTQVTVSS,high polyreactivity
4,QVQLVESGGGLVQAGGSLRLSCAASGFTFKSNAMGGYRQAPGKEREKVAAIDSRGDRTYYADSVKGRFTISRDNAKNTVYLQMNSLKPEDTAVYYCATKWRTYWSSGEYWGQGTQVTVSS,high polyreactivity
5,QVQLVESGGGLVQAGGSLRLSCAASGFTFKSYAMGWYRQAPGKERELVAAINRSGGSTYYADSVKGRFTISRDNAKNTVYLQMNSLKPEDTAVYYCAAVKPPDYYYWGQGTQVTVSS,high polyreactivity
6,QVQLVESGGGLVQAGGSLRLSCAASGFTFKTNARGWYRQAPVTERELVAAITGSGSSTYYADSVKGRFTISRDNAKNTVYLQMNSLKPEDTAVYYCAASRVYKYYWGQGTEVTVSS,high polyreactivity
7,QVQLVESGGGLVQAGGSLRLSCAASGFTFKTYAMGSYRPAPGKEREFVAAISSRGGSTYYSDSVKGRFTISRDNAKNTVYLQMHSLKPEDTAVYYCATATRPRDRYSRYGYWGQGTQVTVSS,high polyreactivity
8,QVQLVESGGGLVQAGGSLRLSCAASGFTFKTYAMGWYRQAPGKEREFVAAISSRGGSTYYADSVKGRFTISRDNAKNTVYLQMNSLKPEDTAVYYCATATRPRDRYSRYGYWGQGTQVTVSS,high polyreactivity
9,QVQLVESGGGLVQAGGSLRLSCAASGFTFKTYVMGWYRQAPGKERELVAAISRRGGSTHYADSVKGRFTISRDNAKNTVYLQMNSLKPEVTAVYYCAARHPFAGTVWGVVSYDYWGQGTLVTVSS,high polyreactivity
10,QVQLVESGGGLVQAGGSLRLSCAASGFTFKWYTRGWYRQAPGKERELVAAISTRGGSTYYADSVKGRFTISRDNAKNTVYLQMNSLKPEDTAVYYCAAVYRRGSGYDYWGQGTQVTVSS,high polyreactivity
11,QVQLVESGGGLVQAGGSLRLSCAASGFTFKYKAMGWYRQAPGKERELVAVISSSGGRTYYADSVKGRFTISRDNAKNTVYLQMNSLKPEDTAVYYCAADTFVWADWSWHYYWRQGTQVTVSS,high polyreactivity
12,QVQLVESGGGLVQAGGSLRLSCAASGFTFKYYAMGWYRQAPGKERELVAAIRRSAGSTNYADSVKGRFTISRDNAKNTVYLQMNSLKPEDTAVYYCNTVGTRQPMDYWGQGTQVTVSS,high polyreactivity
13,QVQLVESGGGLVQAGGSLRLSCAASGFTFKYYAMGWYRQAPGKERELVAAISSGVSTNYADSVKGRFTISRDNAKNTVYLQMNSLKPEDTAVYYCNAEVFWWDQWYDYWGQGTQVTVSS,high polyreactivity
14,QVQLVESGGGLVQAGGSLRLSCAASGFTFKYYAMGWYRQAPGKERELVASISYSGGRTSYADSVKGRFTISRDNAKNTVYLQMNSLKPEDTAVYYCNADVRRIDYKSRQYDYWGQGTQVTVSS,high polyreactivity
15,QVQLVESGGGLVQAGGSLRLSCAASGFTFKYYAMGWYRQAPGKERELVAVINQSGGSTSYADSVKGRFTISRDNAKNTVYLQMNSLKPEDTAVYYCAALVGLFWLWNYDYWGQGTQVTVSS,high polyreactivity
16,QVQLVESGGGLVQAGGSLRLSCAASGFTFKYYAMGWYRQAPGKERELVAVISSSGGSTYYADSVKGRFTISRDNAKNTVYLQMNSLKPEDTAVYYCNTDAYWHRQQYDYWGQGTQVTVSS,low polyreactivity
17,QVQLVESGGGLVQAGGSLRLSCAASGFTFKYYVKGWYRQAPGKERELVAAISSNGGTTYYADSVKGRFTISRDNAKNTVYVQMNSLKPEDTAVYYCAAEPGQEYVVGYSYWGQGSQVTVSS,high polyreactivity
18,QVQLVESGGGLVQAGGSLRLSCAASGFTFLKYAMGGYRQAPGKERDLVARITSGGRTYYADSVKGRFTISRDNAKNTVYLQMNSLKPEDTAVYYCNAVKSYASLYAVFYDWGQGTQVTVSS,high polyreactivity
19,QVQLVESGGGLVQAGGSLRLSCAASGFTFLKYAMGWYRQAPGKERELVAAISWSGGRTFYADSVKGRFTISRDNAKNTVYLQMISLKPEDTAVYYCATRTRGSVYRFDYWGQGTQVTVSS,high polyreactivity
20,QVQLVESGGGLVQAGGSLRLSCAASGFTFLRYAMGWYRQAPGKERELVAAITGSGGSTYYADSVKGRFTISRDNAKNTVYLQMNSLKPEDTAVYYCSIVSKFTGDYGYWGQGTQVTVSS,high polyreactivity
